From patent publication US20040107456A1 (ACADEMIA SINICA, published 2004)

B1: GAD-OsMYBS3 fusion protein (other)
chain: MTRRCSHCSHNGHNSRTCPNRGVKIFGVRLTDGSIRKSASMGNLSLLSSAAGSTSGGASPADGPDAAPTAADGYASDDFVQGFSSATRDRKKGVPWTEEEHRRFLLGLQKLGKGDWRGISRNFVVSRTPTQVASHAQKYFIRQSNMTRRKRRSSLFDMVPDESMDLPPLPGGQEPETQVLNQPALPPPKEEEEVDSMESDTSAVAESSSASAIMPDNLQSTYPVIVPAYFSPFLQFSVPFWQNQKDEDGPVQETHEIVKPVPVHSKSPINVDELVGMSKLSIGESNQETESTSLSLNLVGGQNRQSAFHANPPTRAQA
notes: Two-hybrid prey expressed from the Ubi promoter in barley aleurone cells; not shown: limits not
B2: GAD-OsMYBS1 fusion protein (other)
chain: MTSQAATTTTTAAAAAAWTREDDKAFENALAACAAPPPADGGAPDDDWFAALAASVPGARSAEEVRRHYEALVEDVAAIDAGRVPLPRYAGEESAAPPDGAGAAAAASKDGGHRRDERKGGGGGYDGGKSCSKAEQERRKGIPWTEEEHRLFLLGLDKFGKGDWRSISRNFVISRTPTQVASHAQKYFIRLNSMNRDRRRSSIHDITSVTAGDQVAAQQGAPITGHQATGNPAAAALGPPGMKHHHHHHPGGAPPPMPMYSAAPMGHPVAGHMVPAAVGTPVVFPPGHAPYVVPVGYPAPPAKMHQ
notes: as for B1

Key:
[1] = target: T1, GBD-OsMYBS1 fusion protein (yeast; rice, UniProt P04386 1-147); test: two-hybrid in barley aleurone cells, luciferase reporter
T1 construct: Two-hybrid bait expressed from the Ubi promoter in barley aleurone cells
Protocol: (§1) In c-Myb, R2 and R3 bind to specific DNA sequences cooperatively. To test the possibility that OsMYBS binds DNA as dimers, homologous and heterologous interactions among OsMYBS proteins were analyzed using a two-hybrid system in barley aleurone cells. The full-length OsMYBS sequences were individually fused at the C-terminus of GAD or GBD. The GAD-OsMYBS and GBD-OsMYBS chimeric genes were fused downstream of the Ubi promoter and used as effector constructs. A DNA fragment containing five tandem repeats of UAS (5×UAS) was fused upstream of the CaMV35S minimal promoter-Luc chimeric gene and used as a reporter construct. The barley half seeds were particle-bombarded simultaneously with two effector plasmids, each containing GAD-OsMYBS and GBD-OsMYBS fusion genes, and the reporter plasmid. The bombarded half seeds were incubated in buffer without glucose for 24 h, and luciferase activity was determined. […] Except that the background level of reporter gene expression in the presence of GBD-OsMYBS1 alone is too high to detect the interactions between GBD-OsMYBS1 and GAD-OsMYBS proteins, similar results were obtained with the yeast two-hybrid experiments.

[2] = target: T2, GBD-OsMYBS2 fusion protein (yeast; rice); test: two-hybrid in barley aleurone cells, luciferase reporter; similar results in yeast two-hybrid
T2 construct: Two-hybrid bait
Protocol: as §1

[3] = target: T3, GBD-OsMYBS3 fusion protein (yeast; rice); test: as above
T3 construct: Two-hybrid bait
Protocol: as §1

Row | Binder | binding result [1] | binding result [2] | binding result [3]
1 | B1 | no binding | no binding | no binding
2 | B2 |  | no binding | no binding
